A short description of the data set: in vivo. Also noted: species or system SCID mice. Particulars: SCID, mouse, iv, total radioactivity, accumulation in the tumor. As to the method:
Embodiment 3: Radionuclide Labeled D-L2(-B)-L1-A is Used for Animal In Vivo imaging PC-3 human […] adenocarcinoma cells were inoculated into the forelimbs of SCID mice at 4×10^6, and about 3 weeks after inoculation, the radionuclide In-111 labeled D-L2(-B)-L1-A was used to adjust with injection water, and 469-527 μCi of radioactive drugs were intravenously injected into the tail vein, and nano SPECT/CT imaging was performed after administration at 1, 4, 24, 48, 72, and 96 hours, respectively. Nano SPECT/CT was used to track the distribution of radiopharmaceuticals in the animal body at each of the time points after administration, and analysis software was used to enter the image into the semi-definite image to obtain the SPECT value from the test substance with known activity at each of the time points. The linear ratio formula was derived between the SPECT calculated value and the actual activity, and the SPECT calculated value was then used at each target organ circled area to obtain the live/volume of each target organ with interpolation or extrapolation linear formula.
For performing the calculation we assume that every 1 mL of injection dosage is 1 g, and the circled area in the mouse body is 1 g per 1 cm^3. Furthermore, since the activity volume of the administered injection and the weight of the experimental mouse are known, each gram of In-111-D-L2(-B)-L1-A's biological distribution ratio (% ID/g) in each organ can be deduced, and will focus on organ tumor, liver, kidney and muscle into the distribution comparison and obtain ratio, as shown in FIG. 10.

Square brackets hold non-standard residues; d marks the D form. Side chains are listed from the residue outwards. Peptide text beside a SMILES is read from it. * marks the point of attachment. DOTA = O=C(O)CN1CCN(CC(=O)O)CCN(CC(=O)*)CCN(CC(=O)O)CC1; dTyr(3-I) = N[C@H](Cc1ccc(O)c(I)c1)C(=O)O; 2Nal = N[C@@H](Cc1ccc2ccccc2c1)C(=O)O; dNMeOrn = CN[C@H](CCCN)C(=O)O; 4Amb = NCc1ccc(C(=O)O)cc1

One may read the tissue uptake as the percentage of the injected dose found per gram of tissue. On to `Cc1ccc(CCCC(=O)NCCCC[C@H](NC(=O)CN2CCN(CC(=O)O)CCN(CC(=O)O)CCN(CC(=O)O)CC2)C(=O)NCc2ccc(C(=O)NCCC[C@@H]3C(=O)N[C@@H](CCCNC(=N)N)C(=O)N[C@@H](Cc4ccc5ccccc5c4)C(=O)NCC(=O)N[C@H](Cc4ccc(O)c(I)c4)C(=O)N3C)cc2)cc1` (111In complex, metal not drawn) [I-01(-I-01)-I-01], for which the tissue uptake at 1 h came to 5.47 %ID/g and the tissue uptake at 24 h was above 1 %ID/g.

In the case of `Cc1ccc(CCCC(=O)NCCCC[C@H](NC(=O)CN2CCN(CC(=O)O)CCN(CC(=O)O)CCN(CC(=O)O)CC2)C(=O)NCCCCCC(=O)NCCC[C@@H]2C(=O)N[C@@H](CCCNC(=N)N)C(=O)N[C@@H](Cc3ccc4ccccc4c3)C(=O)NCC(=O)N[C@H](Cc3ccc(O)c(I)c3)C(=O)N2C)cc1` (111In complex, metal not drawn) [I-01(-I-01)-I-17], the tissue uptake at 1 h was determined as 7.87 %ID/g and the tissue uptake at 24 h is above 1 %ID/g.

With `CN1C(=O)[C@@H](Cc2ccc(O)c(I)c2)NC(=O)CNC(=O)[C@H](Cc2ccc3ccccc3c2)NC(=O)[C@H](CCCNC(=N)N)NC(=O)[C@H]1CCCNC(=O)c1ccc(CNC(=O)CN2CCN(CC(=O)O)CCN(CC(=O)O)CCN(CC(=O)O)CC2)cc1` [In-111-pentixather, metal not drawn] (cyclo([dTyr(3-I)][dNMeOrn]([4Amb-DOTA])R[2Nal]G)), the tissue uptake at 1 h is 3.24 %ID/g, the tissue uptake at 4 h was 1.54 %ID/g, the tissue uptake at 48 h is 0.5 %ID/g and the tissue uptake at 72 h was 0.24 %ID/g. The tissue uptake at 96 h was 0.25 %ID/g.

The values above are taken from US20220089574A1, “CXCR4 gamete molecular structure and method thereof” (priority 2020, published 2022).
